Laboratory results published in US20230331817A1 (The Regents of the University of California, priority 2020, published 2023).
Where no end group is shown, it is not given here.

Tests used:
plasmin kringle domain = plasmin kringle domain (UniProt P00747); assay: not stated (SPR implied)
human plasmin [1] = target: T1, human plasmin (human, UniProt P00747 97-810); assay: plasmin amidolytic inhibition, sample kept at 37° C., Day 2
T1 construct: Plasmin is a two-chain enzyme derived from plasminogen; also called Pm
T1 sequence (P00747 97-810 limits assumed): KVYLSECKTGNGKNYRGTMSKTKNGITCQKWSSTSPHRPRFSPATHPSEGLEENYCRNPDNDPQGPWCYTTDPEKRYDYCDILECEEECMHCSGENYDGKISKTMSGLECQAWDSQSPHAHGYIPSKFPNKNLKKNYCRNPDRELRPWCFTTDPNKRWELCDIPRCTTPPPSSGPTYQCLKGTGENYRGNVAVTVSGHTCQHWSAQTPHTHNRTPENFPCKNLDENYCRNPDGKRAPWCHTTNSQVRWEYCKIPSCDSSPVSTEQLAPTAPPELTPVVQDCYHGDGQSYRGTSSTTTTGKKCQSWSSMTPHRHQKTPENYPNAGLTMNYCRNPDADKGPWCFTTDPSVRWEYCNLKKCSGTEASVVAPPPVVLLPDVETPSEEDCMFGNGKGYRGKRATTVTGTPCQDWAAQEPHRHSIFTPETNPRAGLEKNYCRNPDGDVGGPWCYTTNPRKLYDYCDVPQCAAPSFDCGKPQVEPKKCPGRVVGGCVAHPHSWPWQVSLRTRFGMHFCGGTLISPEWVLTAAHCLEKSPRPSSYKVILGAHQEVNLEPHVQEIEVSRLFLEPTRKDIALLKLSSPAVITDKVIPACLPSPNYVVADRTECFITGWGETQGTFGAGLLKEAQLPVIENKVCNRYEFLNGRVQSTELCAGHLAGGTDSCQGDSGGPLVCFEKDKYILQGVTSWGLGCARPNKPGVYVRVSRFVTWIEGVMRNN
Description: (§1) Reactions were carried out in TBS/BSA and 2 mM calcium. […] Synthetic substrate for plasmin was then added to a final concentration of 1 KM, and residual amidolytic activity was measured in a kinetic microplate reader (Molecular Devices). […] Data are analyzed using an equation for a tight-binding inhibitor and Kᵢ values are obtained by correcting for the effect of substrate concentration.

human plasmin [2] = target: T1, human plasmin; assay: plasmin amidolytic inhibition, sample kept at 37° C., Day 6
Description: as §1

human plasmin [3] = target: T1, human plasmin; assay: plasmin amidolytic inhibition, sample kept at 4° C., Day 5
Description: as §1

human plasmin [4] = target: T1, human plasmin; assay: plasmin amidolytic inhibition, sample kept at room temperature, Day 3
Description: as §1

human plasmin [5] = target: T1, human plasmin; assay: plasmin amidolytic inhibition, sample kept at 37° C., Day 3
Description: as §1

human plasmin [6] = target: T1, human plasmin; assay: plasmin amidolytic inhibition, sample kept at 4° C., Day 2
Description: as §1

human plasmin [7] = target: T1, human plasmin; assay: plasmin amidolytic inhibition, slow tight binding equation
Description: as §1

plasma kallikrein [8] = target: T2, plasma kallikrein (human, UniProt P03952 20-638); assay: protease amidolytic inhibition, tight-binding equation
T2 construct: also called pKLK; KLK
T2 sequence (P03952 20-638 limits assumed): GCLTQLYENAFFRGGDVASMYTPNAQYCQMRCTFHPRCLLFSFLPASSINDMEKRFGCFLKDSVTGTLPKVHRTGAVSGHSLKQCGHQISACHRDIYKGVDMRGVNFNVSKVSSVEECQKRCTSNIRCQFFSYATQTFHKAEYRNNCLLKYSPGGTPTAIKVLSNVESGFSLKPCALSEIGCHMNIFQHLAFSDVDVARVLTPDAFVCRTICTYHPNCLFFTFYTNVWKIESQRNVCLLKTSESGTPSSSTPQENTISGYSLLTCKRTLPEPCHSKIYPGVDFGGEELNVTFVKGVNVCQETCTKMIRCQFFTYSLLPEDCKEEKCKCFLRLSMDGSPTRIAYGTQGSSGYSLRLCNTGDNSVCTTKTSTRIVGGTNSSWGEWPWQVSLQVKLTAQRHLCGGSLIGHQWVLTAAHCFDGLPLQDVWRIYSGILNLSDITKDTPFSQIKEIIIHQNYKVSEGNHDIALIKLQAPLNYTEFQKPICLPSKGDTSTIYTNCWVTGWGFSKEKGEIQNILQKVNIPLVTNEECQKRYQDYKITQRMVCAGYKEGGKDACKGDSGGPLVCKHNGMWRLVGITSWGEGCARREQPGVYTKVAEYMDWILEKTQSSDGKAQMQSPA

human plasmin [9] = target: T1, human plasmin; assay: as above
human plasmin [10] = target: T1, human plasmin; assay: plasmin amidolytic inhibition, sample kept at room temperature, Day 4
Description: as §1

human plasmin [11] = target: T1, human plasmin; assay: cell-based or functional assay
human plasmin [12] = target: T1, human plasmin; assay: plasmin amidolytic inhibition, sample kept at 4° C., Day 1
Description: as §1

human plasmin [13] = target: T1, human plasmin; assay: plasmin amidolytic inhibition, sample kept at 37° C., Day 5
Description: as §1

human plasmin [14] = target: T1, human plasmin; assay: plasmin amidolytic inhibition, sample kept at room temperature, Day 5
Description: as §1

human plasmin [15] = target: T1, human plasmin; assay: plasmin amidolytic inhibition, sample kept at room temperature, Day 1
Description: as §1

plasma kallikrein [16] = target: T2, plasma kallikrein; assay: protease amidolytic inhibition, against the 60 residue double mutant Y11T/L17R
[17] = target: T3, factor VIIa/soluble tissue factor (human, UniProt P08709 61-466; P13726 33-251); assay: as above
T3 construct: Complex of the enzyme FVIIa and its cofactor sTF, used at 20 nM; also called FVIIa/sTF; factor VIIa/tissue factor

factor XIa = target: T4, factor XIa (human, UniProt P03951 19-625); assay: as above
T4 construct: also called FXIa

human plasmin [18] = target: T1, human plasmin; assay: plasmin amidolytic inhibition, sample kept at 37° C., Day 1
Description: as §1

human plasmin [19] = target: T1, human plasmin; assay: plasmin amidolytic inhibition, sample kept at 37° C., Day 7
Description: as §1

human plasmin [20] = target: T1, human plasmin; assay: plasmin amidolytic inhibition, sample kept at 4° C., Day 6
Description: as §1

human plasmin [21] = target: T1, human plasmin; assay: plasmin amidolytic inhibition, sample kept at 37° C., Day 4
Description: as §1

human plasmin [22] = target: T1, human plasmin; assay: plasmin amidolytic inhibition, sample kept at 4° C., Day 3
Description: as §1

human plasmin [23] = target: T1, human plasmin; assay: plasmin amidolytic inhibition, sample kept at room temperature, Day 7
Description: as §1

human plasmin [24] = target: T1, human plasmin; assay: plasmin amidolytic inhibition, sample kept at room temperature, Day 2
Description: as §1

human plasmin [25] = target: T1, human plasmin; assay: plasmin amidolytic inhibition, sample kept at 4° C., Day 4
Description: as §1

human plasmin [26] = target: T1, human plasmin; assay: plasmin amidolytic inhibition, sample kept at room temperature, Day 6
Description: as §1

human plasmin [27] = target: T1, human plasmin; assay: residual amidolytic activity of 3 nM human plasmin after incubation with the inhibitor (chromogenic substrate)
human plasmin [28] = target: T1, human plasmin; assay: plasmin amidolytic inhibition, sample kept at 4° C., Day 7
Description: as §1

- Kd (plasmin kringle domain): 40 nM
- Ki (human plasmin [1]): 0.14 nM
- Ki (human plasmin [2]): 0.14 nM
- Ki (human plasmin [3]): 0.13 nM
- Ki (human plasmin [4]): 0.15 nM
- Ki (human plasmin [5]): 0.15 nM
- Ki (human plasmin [6]): 0.13 nM
- Ki (human plasmin [7]): 0.05 nM
- Ki (plasma kallikrein [8]): > 20000 nM
- Ki (human plasmin [9]): 0.15 nM
- Ki (human plasmin [10]): 0.14 nM
- Ki (human plasmin [12]): 0.14 nM
- Ki (human plasmin [13]): 0.15 nM
- Ki (human plasmin [14]): 0.14 nM
- Ki (human plasmin [15]): 0.15 nM
- fold weaker inhibition than the Y11T/L17R double mutant (plasma kallikrein [16]): ≥ 10 fold
- fold weaker inhibition than the Y11T/L17R double mutant [17]: ≥ 10 fold
- fold weaker inhibition than the Y11T/L17R double mutant (factor XIa): ≥ 10 fold
- Ki (human plasmin [18]): 0.15 nM
- Ki (human plasmin [19]): 0.15 nM
- Ki (human plasmin [20]): 0.15 nM
- Ki (human plasmin [21]): 0.15 nM
- Ki (human plasmin [22]): 0.14 nM
- Ki (human plasmin [23]): 0.15 nM
- Ki (human plasmin [24]): 0.14 nM
- Ki (human plasmin [25]): 0.14 nM
- Ki (human plasmin [26]): 0.15 nM
- IC50 (read off the curve) (human plasmin [27]): ~1 nM
- Ki (human plasmin [28]): 0.14 nM
B1: KD1Y11T/R15K/L17R-KT (designed binder)
chain: NAEICLLPLDTGPCKARLLRYYYDRYTQSCRQFLYGGCEGNANNFYTWEACDDACWRIEK
modifications: ends and bridges not checked; cysteine pairing not given here
notes: also called KD1TM; rHuKD1-TM
- TEG G, 2 nM tPA + 2 µM KD1TM, whole blood (human plasmin [11]): 3530 dyn/cm^2
- TEG G, 2 nM tPA + 4 µM KD1TM, whole blood (human plasmin [11]): 4010 dyn/cm^2
- TEG LY30, 2 nM tPA + 2 µM KD1TM, whole blood (human plasmin [11]): 0.1%
- TEG LY30, 2 nM tPA + 4 µM KD1TM, whole blood (human plasmin [11]): 0%
- TEG LY60, 2 nM tPA + 2 µM KD1TM, whole blood (human plasmin [11]): 3.7%
- TEG LY60, 2 nM tPA + 4 µM KD1TM, whole blood (human plasmin [11]): 1.7%
- TEG MA, 2 nM tPA + 2 µM KD1TM, whole blood (human plasmin [11]): 41.4 mm
- TEG MA, 2 nM tPA + 4 µM KD1TM, whole blood (human plasmin [11]): 44.5 mm
